Data: patent US20220112296A1 (Chugai, published 2022)
Changes are numbered by the printed parent chain. Where “and” joins values, the source holds several entries; their conditions need not be identical. Identical values can stand only once. One block for each binder: values may come before it.

How the values were obtained:
[1] = target: T1, Human CD137 ECD (human); assay: SPR Biacore T200, 37 C, Ab captured
T1 construct: C-terminal His-tag and biotin acceptor peptide are in the entry; also called human CD137 extracellular domain; recombinant human CD137
Procedure: (§1) Anti-human Fc (GE Healthcare) was immobilized onto all flow cells of a CM4 sensor chip using amine coupling kit (GE Healthcare). […] All antibodies and analytes were prepared in ACES pH 7.4 containing 20 mM ACES, 150 mM NaCl, 0.05% Tween 20, 0.005% NaN3. Sensor surface was regenerated each cycle with 3M MgCl2.

[2] = target: T2, Human CD3eg linker (human); assay: SPR Biacore T200, 25 C, Ab captured
T2 construct: CD3 epsilon and gamma subunits joined by a 29-mer linker, C-terminal Flag-tag (in the entry); also called recombinant human CD3
T2 chain: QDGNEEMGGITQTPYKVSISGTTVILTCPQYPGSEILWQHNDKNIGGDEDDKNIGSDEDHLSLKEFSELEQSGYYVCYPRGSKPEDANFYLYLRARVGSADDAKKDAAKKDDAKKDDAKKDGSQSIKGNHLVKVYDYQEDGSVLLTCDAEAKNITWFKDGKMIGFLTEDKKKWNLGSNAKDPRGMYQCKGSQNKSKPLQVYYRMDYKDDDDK
Procedure: as §1

[3] = target: T3, cyno CD137-Fc (cynomolgus monkey; human, biotin-labeled); assay: bead ELISA
T3 construct: whole entry named; also called biotin-labeled cynomolgus monkey CD137 fused to human IgG1 Fc fragment; not shown: human IgG1 Fc fragment
T3 chain: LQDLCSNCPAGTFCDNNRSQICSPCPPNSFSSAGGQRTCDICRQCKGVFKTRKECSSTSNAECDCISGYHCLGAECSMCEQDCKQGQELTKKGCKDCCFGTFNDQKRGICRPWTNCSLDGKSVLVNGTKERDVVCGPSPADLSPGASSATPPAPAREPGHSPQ

[4] = target: T4, biotinylated CD3 epsilon epitope peptide; assay: SPR Biacore, method of Ref. Ex. 12.6
T4 construct: immobilised on CM5 chip via streptavidin

T1 sequence (chain, as listed by the source limits assumed): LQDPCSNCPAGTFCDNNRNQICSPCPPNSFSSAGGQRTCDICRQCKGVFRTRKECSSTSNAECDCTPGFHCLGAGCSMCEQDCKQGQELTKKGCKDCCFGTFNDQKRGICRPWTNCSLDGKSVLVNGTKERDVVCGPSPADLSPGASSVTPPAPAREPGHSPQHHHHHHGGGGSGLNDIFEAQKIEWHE

B3: CE115HA340 (antibody, human IgG1, L234A L235A, N297A, V domains shown)
VH: QVQLVESGGGLVQPGRSLRLSCAASGFTFSNAWMHWVRQAPGKGLEWVAQIKDKSNNYATYYAESVKGRFTISRDDSKNSIYLQMNSLKTEDTAVYYCRYVHYAAYYGVDAWGQGTTVTVSS
VL: DIVMTQSPLSLPVTPGEPASISCRSSQSLVHSNRNTYLHWYQQKPGQAPRLLIYKVSNRFSGVPDRFSGSGSGTDFTLKISRVEAEDVGVYYCGQGTQVPYTFGQGTKLEIK
Kd [4]: 20 nM and 27 nM

B4: H1673L0943 (antibody, V domains shown)
VH: QVQLVESGGGLVQPGRSLRLSCAASGFVFSNVWFHWVRQAPGKGLEWVAQIKDKWNAYADYYAPSVKERFTISRDDSKNSIYLQMNSLKTEDTAVYYCHYIHYASASTLLPAEGIDAWGQGTTVTVSS
VL: DIVMTQSPLSLPVTPGEPASISCQPSEEVVHMNRNTYLHWYQQKPGQAPRLLIYKVSNLFPGVPDRFSGSGSGTDFTLKISRVEAEDVGVYYCAQGTHHPFTFGQGTKLEIK
Kd [1]: 56.5 nM | Kd [2]: 24.6 nM

Now from value to binder:

Kd [1]: 47.9 nM | Kd [2]: 288 nM
B1: H1643L0581 (antibody, V domains shown)
VH: B4 VH with V28K, K54Y, W55Y, D60A, E68G, I101V, I115V
VL: B4 VL with E27Q, L59R, H98S
notes: also called H1643L581; Dual

binding result [3]: no binding
B2: DADU01_3#001 (antibody, V domains shown)
VH: QVQLVESGGGLVQPGRSLRLSCAASGFTFSIAWMHWVRQAPGKGLEWVAQIKDRVNAYEAYYAPSVKGRFTISRDDSKNSIYLQMNSLKTEDTAVYYCRYVHYASYYDLLGYGGVDAWGQGTTVTVSS
VL: B3 VL
notes: also called dBBDu_126; dBBDu126
